Experimental data reported in patent US20220235345A1 (University of California, published 2022).
Ends that are not written are not given here.

What was measured:
[1] = test system: Mca-DDREIMREGS-Dnp peptide containing Scc1 site 1
[2] = biological target: catalytically-dead separase with intact autocleavage sites (UniProt Q14674)
[3] = biological target: 35S-labeled human Scc1 fragment (residues 142-300) (UniProt O60216)
[4] = test system: securin^RE fragment containing residues 93-150
[5] = biological target: separase biosensor H2B-mRuby2-Scc1(142-467)-mNeonGreen with 255Leu-Pro to Ala-Ala (UniProt O60216)
[6] = biological target: separase biosensor H2B-mRuby2-Scc1(142-467)-mNeonGreen with deletion of Scc1 aa 251 to 260 (UniProt O60216)
[7] = biological target: T1, separase biosensor H2B-mRuby2-Scc1(142-467)-mNeonGreen, wild-type (UniProt O60216)
T1 sequence (O60216 whole entry, looked up): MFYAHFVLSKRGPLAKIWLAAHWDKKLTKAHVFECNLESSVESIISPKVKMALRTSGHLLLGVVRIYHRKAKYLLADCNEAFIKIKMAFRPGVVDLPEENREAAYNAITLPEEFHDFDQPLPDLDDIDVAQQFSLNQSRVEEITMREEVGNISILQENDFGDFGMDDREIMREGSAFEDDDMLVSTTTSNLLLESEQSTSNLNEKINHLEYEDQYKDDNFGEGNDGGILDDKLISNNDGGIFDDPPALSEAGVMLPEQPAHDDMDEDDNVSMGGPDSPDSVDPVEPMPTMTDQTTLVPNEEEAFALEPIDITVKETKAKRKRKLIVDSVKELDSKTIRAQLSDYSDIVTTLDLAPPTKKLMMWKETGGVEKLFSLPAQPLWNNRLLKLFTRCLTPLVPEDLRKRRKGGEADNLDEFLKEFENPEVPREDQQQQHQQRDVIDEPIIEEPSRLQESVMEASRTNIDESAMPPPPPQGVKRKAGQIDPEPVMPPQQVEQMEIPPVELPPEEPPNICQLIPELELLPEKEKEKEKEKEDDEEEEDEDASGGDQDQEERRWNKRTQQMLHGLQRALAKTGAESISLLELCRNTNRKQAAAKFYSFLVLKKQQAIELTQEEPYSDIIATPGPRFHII

[8] = biological target: T2, active human separase, securin-free (ClpXP-activated separase obtained from the securin-separase fusion after … (human, UniProt Q14674 1-2120)); assay: in vitro cleavage of 35S-labeled securin^RE fragments with LP mutations by separase; interaction inferred from cleavage
T2 construct: also called active separase; apo separase; not shown: N-terminal remnant left after TEV cleavage of the fusion (3x FLAG tag between TEV site and separase)
T2 sequence (Q14674 other isoform, or with tags, fused parts or gaps): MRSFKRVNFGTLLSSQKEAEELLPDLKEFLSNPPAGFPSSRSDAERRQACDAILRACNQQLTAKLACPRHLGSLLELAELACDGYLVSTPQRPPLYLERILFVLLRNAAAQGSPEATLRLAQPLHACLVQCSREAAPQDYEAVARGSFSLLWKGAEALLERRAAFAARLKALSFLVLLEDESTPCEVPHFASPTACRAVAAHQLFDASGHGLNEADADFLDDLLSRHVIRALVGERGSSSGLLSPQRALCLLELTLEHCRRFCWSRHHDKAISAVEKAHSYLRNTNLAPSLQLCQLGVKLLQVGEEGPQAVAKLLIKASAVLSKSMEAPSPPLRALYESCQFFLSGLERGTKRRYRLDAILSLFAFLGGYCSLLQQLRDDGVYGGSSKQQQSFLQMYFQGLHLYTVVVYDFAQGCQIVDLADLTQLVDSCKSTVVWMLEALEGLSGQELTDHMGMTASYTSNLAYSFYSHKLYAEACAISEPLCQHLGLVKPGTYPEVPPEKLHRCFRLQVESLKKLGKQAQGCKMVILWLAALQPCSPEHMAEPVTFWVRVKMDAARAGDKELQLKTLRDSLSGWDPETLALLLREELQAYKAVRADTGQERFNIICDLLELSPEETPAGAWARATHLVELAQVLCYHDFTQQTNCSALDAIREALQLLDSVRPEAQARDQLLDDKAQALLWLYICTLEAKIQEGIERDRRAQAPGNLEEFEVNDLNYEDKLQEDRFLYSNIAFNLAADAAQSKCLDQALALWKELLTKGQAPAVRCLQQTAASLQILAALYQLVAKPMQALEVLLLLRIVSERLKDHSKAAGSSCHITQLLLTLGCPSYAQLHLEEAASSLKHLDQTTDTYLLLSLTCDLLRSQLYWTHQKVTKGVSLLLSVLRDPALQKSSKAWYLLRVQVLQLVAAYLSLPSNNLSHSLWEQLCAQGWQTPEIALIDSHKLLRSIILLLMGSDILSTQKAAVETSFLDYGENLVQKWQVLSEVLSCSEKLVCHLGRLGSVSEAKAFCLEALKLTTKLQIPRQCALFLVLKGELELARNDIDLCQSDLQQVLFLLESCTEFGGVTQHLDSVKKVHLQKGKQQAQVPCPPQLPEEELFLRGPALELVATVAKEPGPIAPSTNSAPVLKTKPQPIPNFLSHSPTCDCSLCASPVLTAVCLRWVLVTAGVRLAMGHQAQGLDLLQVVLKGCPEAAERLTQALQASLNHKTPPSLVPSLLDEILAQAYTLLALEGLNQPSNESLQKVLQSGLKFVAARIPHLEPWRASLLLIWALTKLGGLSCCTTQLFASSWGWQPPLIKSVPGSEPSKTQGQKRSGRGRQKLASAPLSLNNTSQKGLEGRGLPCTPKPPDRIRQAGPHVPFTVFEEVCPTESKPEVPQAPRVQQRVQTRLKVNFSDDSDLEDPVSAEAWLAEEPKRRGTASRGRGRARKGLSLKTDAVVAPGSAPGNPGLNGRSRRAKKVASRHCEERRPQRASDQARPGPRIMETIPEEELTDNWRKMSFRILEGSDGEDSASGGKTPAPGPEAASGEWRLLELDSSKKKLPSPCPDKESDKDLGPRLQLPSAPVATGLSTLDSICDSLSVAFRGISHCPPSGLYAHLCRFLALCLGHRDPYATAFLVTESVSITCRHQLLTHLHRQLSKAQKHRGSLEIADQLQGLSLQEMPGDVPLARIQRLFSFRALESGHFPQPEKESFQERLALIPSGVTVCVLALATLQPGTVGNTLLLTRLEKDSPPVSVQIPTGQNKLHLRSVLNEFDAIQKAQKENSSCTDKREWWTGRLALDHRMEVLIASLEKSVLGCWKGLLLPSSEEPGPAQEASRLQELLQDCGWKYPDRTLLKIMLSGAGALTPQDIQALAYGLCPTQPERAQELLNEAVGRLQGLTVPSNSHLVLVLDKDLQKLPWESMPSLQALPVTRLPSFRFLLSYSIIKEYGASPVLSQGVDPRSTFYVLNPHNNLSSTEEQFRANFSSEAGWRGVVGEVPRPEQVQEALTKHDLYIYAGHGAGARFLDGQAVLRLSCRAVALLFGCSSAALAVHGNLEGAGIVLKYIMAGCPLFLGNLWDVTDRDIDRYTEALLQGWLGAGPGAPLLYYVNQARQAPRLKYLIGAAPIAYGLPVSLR
Source text: An approach for investigating the importance of ¹³⁰LPE for securin binding to separase was developed. It is known that fungal securin can be converted to a separase substrate by making mutations that convert the pseudosubstrate site into a cleavage site⁴. The equivalent mutations were made in human securin (¹¹⁸FP to RE) and this securin^RE mutant was used to test the importance of ¹³⁰LPE for securin engagement with separase. An LP sequence a few residues further downstream (¹³⁹LP) was also tested. […] A securin^RE fragment containing residues 93-150 was then tested. […] Mutation of ¹³⁹LP had no effect, except when combined with mutation of ¹³⁰LP.

Sequence of catalytically-dead separase with intact autocleavage sites (Q14674 whole entry S1126A/C2029S, the tested form may be a part): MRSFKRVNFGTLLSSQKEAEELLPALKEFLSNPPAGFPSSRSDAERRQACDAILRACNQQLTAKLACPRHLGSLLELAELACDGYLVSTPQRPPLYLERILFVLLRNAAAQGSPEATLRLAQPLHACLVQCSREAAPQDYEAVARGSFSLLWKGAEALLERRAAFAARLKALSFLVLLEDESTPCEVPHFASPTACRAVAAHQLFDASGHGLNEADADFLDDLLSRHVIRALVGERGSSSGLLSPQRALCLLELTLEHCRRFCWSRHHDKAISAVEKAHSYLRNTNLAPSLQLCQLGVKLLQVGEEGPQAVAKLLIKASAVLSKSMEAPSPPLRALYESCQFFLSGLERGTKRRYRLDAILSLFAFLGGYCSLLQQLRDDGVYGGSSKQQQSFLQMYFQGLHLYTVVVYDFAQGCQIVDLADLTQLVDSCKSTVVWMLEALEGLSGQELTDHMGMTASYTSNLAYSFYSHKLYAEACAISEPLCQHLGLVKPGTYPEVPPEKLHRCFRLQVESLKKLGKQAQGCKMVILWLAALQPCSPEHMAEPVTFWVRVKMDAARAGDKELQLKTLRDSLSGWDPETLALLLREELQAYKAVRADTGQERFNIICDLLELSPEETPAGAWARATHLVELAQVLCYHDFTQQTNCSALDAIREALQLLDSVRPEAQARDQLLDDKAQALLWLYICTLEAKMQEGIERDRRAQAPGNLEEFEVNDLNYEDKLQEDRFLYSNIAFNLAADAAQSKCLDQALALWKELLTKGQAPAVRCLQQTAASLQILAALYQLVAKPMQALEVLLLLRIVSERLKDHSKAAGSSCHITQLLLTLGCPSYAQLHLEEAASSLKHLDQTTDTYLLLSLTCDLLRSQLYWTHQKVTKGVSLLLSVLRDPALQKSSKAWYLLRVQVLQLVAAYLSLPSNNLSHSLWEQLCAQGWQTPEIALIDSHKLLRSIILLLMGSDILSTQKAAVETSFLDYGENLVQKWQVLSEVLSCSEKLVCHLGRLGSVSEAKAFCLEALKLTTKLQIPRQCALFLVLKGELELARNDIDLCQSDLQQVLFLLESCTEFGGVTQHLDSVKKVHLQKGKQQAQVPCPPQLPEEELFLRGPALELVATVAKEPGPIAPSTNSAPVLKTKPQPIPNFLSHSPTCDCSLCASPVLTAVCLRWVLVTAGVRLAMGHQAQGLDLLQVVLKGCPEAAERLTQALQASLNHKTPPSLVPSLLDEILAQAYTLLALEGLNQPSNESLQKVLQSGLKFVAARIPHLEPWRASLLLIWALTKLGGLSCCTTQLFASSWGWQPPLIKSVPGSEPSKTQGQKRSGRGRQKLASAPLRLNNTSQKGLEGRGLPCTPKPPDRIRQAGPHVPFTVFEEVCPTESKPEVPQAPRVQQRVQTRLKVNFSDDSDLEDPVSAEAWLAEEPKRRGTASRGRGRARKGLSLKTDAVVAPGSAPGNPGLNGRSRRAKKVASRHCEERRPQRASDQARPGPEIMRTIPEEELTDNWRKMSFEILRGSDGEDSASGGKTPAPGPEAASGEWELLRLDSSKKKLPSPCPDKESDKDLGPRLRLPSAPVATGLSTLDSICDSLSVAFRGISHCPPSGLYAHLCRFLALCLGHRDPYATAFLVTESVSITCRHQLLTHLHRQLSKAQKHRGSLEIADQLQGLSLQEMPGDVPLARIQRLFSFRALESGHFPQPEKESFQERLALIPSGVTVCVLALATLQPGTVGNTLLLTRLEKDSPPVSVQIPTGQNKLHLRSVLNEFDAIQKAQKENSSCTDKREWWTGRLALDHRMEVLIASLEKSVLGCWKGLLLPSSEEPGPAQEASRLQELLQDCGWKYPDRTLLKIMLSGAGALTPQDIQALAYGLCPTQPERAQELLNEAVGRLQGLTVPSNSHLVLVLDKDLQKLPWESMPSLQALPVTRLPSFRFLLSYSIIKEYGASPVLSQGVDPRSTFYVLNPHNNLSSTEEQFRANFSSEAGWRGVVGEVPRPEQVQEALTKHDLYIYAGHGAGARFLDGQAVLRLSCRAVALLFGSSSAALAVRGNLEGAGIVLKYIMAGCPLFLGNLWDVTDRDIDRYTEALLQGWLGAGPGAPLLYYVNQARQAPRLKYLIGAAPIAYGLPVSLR

Molecule: active human separase, securin-free (ClpXP-activated separase obtained from the securin-separase fusion after TEV protease cleavage and ClpXP removal of securin)
- KM [1]: KM of 70±30 µM
- cleavage in trans [2]: Separase also cleaved a catalytically-dead separase with intact autocleavage sites
- cleavage of an Scc1 fragment in vitro [3]: incubation with purified ClpXP removed securin and activated separase, as evaluated by cleavage of an Scc1 fragment in vitro
- cleavage of securin^RE fragment [4]: This fragment was 50% cleaved by separase

Molecule: securinΔ127-separase
- peptide cleavage activity (Michaelis-Menten) [1]: no significant differences between the peptide cleavage activities of the three securinΔ-separase proteins and separase with no securin bound
- cleavage of the Scc1 fragment in the gel-based assay [3]: exhibited no cleavage activity in this assay

Molecule: securinΔ138-separase
- peptide cleavage activity (Michaelis-Menten) [1]: no significant differences between the peptide cleavage activities of the three securinΔ-separase proteins and separase with no securin bound
- cleavage of the Scc1 fragment in the gel-based assay [3]: exhibited efficient cleavage of the Scc1 substrate

Molecule: securinΔ160-separase
- peptide cleavage activity (Michaelis-Menten) [1]: no significant differences between the peptide cleavage activities of the three securinΔ-separase proteins and separase with no securin bound
- cleavage of the Scc1 fragment in the gel-based assay [3]: exhibited efficient cleavage of the Scc1 substrate

Molecule: separase in human U2OS cells (endogenous)
- biosensor cleavage efficiency [5]: reduced cleavage efficiency by 50%
- biosensor cleavage efficiency [6]: yielded identical results as the double alanine mutation
- biosensor cleavage during anaphase [7]: efficient biosensor cleavage was observed during anaphase

B1: securin^RE fragment containing residues 93-150 (other)
chain: MTEKTVKAKSSVPASDDAYPEIEKFREFNPLDFESFDLPEEHQIAHLPLSGVPLMILD
modifications: also: 35S-methionine label
notes: Pseudosubstrate motif converted into a separase cleavage site; Translated in vitro with ZZ tag, released by TEV protease; also called 35S-labeled securin fragment (aa 93-150)
- binding result [8]: binds
